Test results as given in patent publication US12723243B2, “Archaeal pyrrolysyl tRNA synthetases for orthogonal use” (European Molecular Biology Laboratory, priority 2016, dated 2026).

Test system: mCherry-GFP^Y39TAG amber suppression reporter
Experiment: Amber suppression in baculovirus-transduced Sf21 insect cells, flow cytometry
Type: cell-based, Spodoptera frugiperda
Description: Following standard protocols, insect cells of line Sf21 were cultured in a protein-free, serum-free standard culture medium for Spodoptera frugiperda cells (Sf-900™ III SFM) at 27° C. shaking at 180 rpm. The Sf21 cells were split every day to a density of 0.6×10^6 cells/ml or every third day to a density of 0.3×10^6 cells/ml.
Baculovirus shuttle vector (Bacmid) DNA containing an expression cassette encoding tRNA^Pyl, mCherry-GFP^Y39TAG and either PylRS^AF or NES-PylRS^AF was prepared using standard cloning and recombination procedures.
For transfection 3 ml/well of 0.3×10^6 Sf21 cells/ml were seeded in a 6-well cell culture multidish (Nunclon Delta Surface, Thermo scientific) and transfected with Bacmid DNA using a nonliposomal transfection reagent (FuGENE®HD Transfection Reagent, Promega) following the manufacturer's instructions. V0-virus was harvested 70 h post transfection and the V1-generation was started. Therefor, 25 ml Sf21 cells at 0.6×10^6 cells/ml were transfected with 3 ml of the Vo-virus. After cell proliferation stopped, the cultures were kept for another 48-60 h at 27° C. shaking at 180 rpm. The transfected cells were harvested by centrifugation (500 rpm, 10 min) and the supernatant (i.e., the V1-Virus) was stored at 4° C.
5-25 ml Sf21 cells at 0.6×10^6 cells/ml were transduced with V1-virus prepared by method (I) at a ratio of 100:1 vol/vol (cells:virus). One day afterwards, different amounts of UAA 1 (0-1 mM final concentration) was added to the cultures. After three days of culture, the cells were harvested by centrifugation (500 rpm, 10 min), cooled down to 4° C., resuspended in 2 ml sterile 1×PBS, filtered through a cell strainer (Falcon, 70 μm, Fisher Scientific) and kept on ice until analysis. Data for 500,000 cells of each sample was acquired and analyzed using a LSRFortessa SORP Cell Analyzer (Becton, Dickinson and Company) and the FlowJo software (FlowJo Enterprise). Cells were gated first by cell type (using FSC-A×SSC-A parameters) and then by single cell (FSC-A×SSC-W). GFP fluorescence was acquired in the 488-530/30 channel and mCherry fluorescence in the 561-610/20 channel.
Sf21 cells were transduced with Bacmid DNA encoding tRNA^Pyl, mCherry-GFP^Y39TAG, and either PylRS^AF or NES-PylRS^AF, cultured with different concentrations (0, 10, 50, 100, 250, 500 or 1000 μM) of UAA 1 (BOC) and analyzed using methods (I) and (J) described herein.
mCherry fluorescence of the cells indicated successful transduction with Bacmid DNA. GFP fluorescence of the cells indicated successful suppression of the amber stop codon encoding amino acid position 39 of the GFP^Y39TAG reporter gene by incorporation of UAA 1 at said position.

B1: PylRS^AF: mutant M. mazei pyrrolysyl tRNA synthetase comprising amino acid substitutions Y306A and Y384F, SEQ ID NO:2 (protein)
chain: MDKKPLNTLISATGLWMSRTGTIHKIKHHEVSRSKIYIEMACGDHLVVNNSRSSRTARALRHHKYRKTCKRCRVSDEDLNKFLTKANEDQTSVKVKVVSAPTRTKKAMPKSVARAPKPLENTEAAQAQPSGSKFSPAIPVSTQESVSVPASVSTSISSISTGATASALVKGNTNPITSMSAPVQASAPALTKSQTDRLEVLLNPKDEISLNSGKPFRELESELLSRRKKDLQQIYAEERENYLGKLEREITRFFVDRGFLEIKSPILIPLEYIERMGIDNDTELSKQIFRVDKNFCLRPMLAPNLANYLRKLDRALPDPIKIFEIGPCYRKESDGKEHLEEFTMLNFCQMGSGCTRENLESIITDFLNHLGIDFKIVGDSCMVFGDTLDVMHGDLELSSAVVGPIPLDREWGIDKPWIGAGFGLERLLKVKHDFKNIKRAARSESYYNGISTNL
modifications: Methanosarcina mazei PylRS Y306A, Y384F mutant; MUTAGEN 306 Y306A mutation; MUTAGEN 384 Y384F mutation
Cells showing both mCherry and GFP fluorescence (Sf21, UAA 1 conc. 0 μM): 1.4%
Cells showing only mCherry fluorescence (Sf21, UAA 1 conc. 0 μM): 94.6%
Cells showing both mCherry and GFP fluorescence (Sf21, UAA 1 conc. 10 μM): 20.1%
Cells showing only mCherry fluorescence (Sf21, UAA 1 conc. 10 μM): 75.8%
Cells showing both mCherry and GFP fluorescence (Sf21, UAA 1 conc. 50 μM): 56.2%
Cells showing only mCherry fluorescence (Sf21, UAA 1 conc. 50 μM): 39.3%
Cells showing both mCherry and GFP fluorescence (Sf21, UAA 1 conc. 100 μM): 67.1%
Cells showing only mCherry fluorescence (Sf21, UAA 1 conc. 100 μM): 25.9%
Cells showing both mCherry and GFP fluorescence (Sf21, UAA 1 conc. 250 μM): 76.5%
Cells showing only mCherry fluorescence (Sf21, UAA 1 conc. 250 μM): 13.9%
Cells showing both mCherry and GFP fluorescence (Sf21, UAA 1 conc. 500 μM): 81.6%
Cells showing only mCherry fluorescence (Sf21, UAA 1 conc. 500 μM): 9.1%
Cells showing both mCherry and GFP fluorescence (Sf21, UAA 1 conc. 1000 μM): 85.8%
Cells showing only mCherry fluorescence (Sf21, UAA 1 conc. 1000 μM): 5.7%
